Measurements published in publication PMC9213791, “Small Molecule RPI-194 Stabilizes Activated Troponin to Increase the Calcium Sensitivity of Striated Muscle Contraction” (Frontiers in Physiology, 2022).

Legend:
[1] = target: T1, recombinant human aCys-cNTnC (C35S, C84S double mutant), N-terminal regulatory domain of cardiac troponin C (human); test: NMR titration; ssTnI peptide titrated to 0.1-3 equivalents into 15N-labeled cNTnC·RPI-194 complex (115 µM, 1:1 protein and drug); 100 mM KCl, 10 mM imidazole, pH ~6.7, 30°C; 2D 1H,15N HSQC; KD from TITAN, two-state model; settings: both partners purified
T1 construct: human cardiac/slow skeletal troponin C, N-terminal regulatory domain (cNTnC); Uniformly 15N-labeled for NMR; also called cNTnC domain; isolated cNTnC domain; source: E. coli, expressed and purified as previously described (Cai et al., 2016), lyophilized; 15N-labeled

[2] = target: T1, recombinant human aCys-cNTnC (C35S, …); test: NMR titration; ssTnI peptide (10 mM stock in d6-DMSO) titrated to 0.5-30 equivalents into 15N-labeled cNTnC (115 µM); 100 mM KCl, 10 mM imidazole, pH ~6.7, 30°C; 2D 1H,15N HSQC; KD from 2D lineshape analysis (TITAN), two-state model; no RPI-194; settings: both partners purified

- Kd [1]: 22 µM
- Kd [2]: 652 µM
B1: slow skeletal troponin I switch peptide (ssTnI) (peptide)
chain: RVSADAMLRALLGSKHK
modifications: synthetic peptide; termini not stated. Limits not printed: taken as the ssTnI equivalent (offset -30) of the conventional cTnI switch peptide 147-163, because the paper compares it with the …
